To fix the notation:
B1: TPR t1 (parent)
chain: GACCAAUCUGCCCUCAGAGCUCGAGAACAUCUUCGGAUGCAGAGGAGGCAGGCUUCGGUGGCGCGAUAGCGCCAACGUCCUCAACCUCCAAUGCAUCCCACCACAUGAUGAUGCCUGAAGAGCCUUGGUUUUUUG

The series covers variants of B1. As to the kind of experiment: polymerase ribozyme fitness, log enrichment relative to wild type (log ratio); higher = more active; in vitro selection for triplet polymerase activity. In short, it runs like this: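 In triplicate, a single round of in vitro selection was run on each mutant library, PCR-built and transcribed, covering one subunit of a heterodimeric triplet polymerase ribozyme. Frozen incubation at −7 °C followed annealing with a biotinylated primer, partner subunit and triplets, and extended constructs were then gel-excised, streptavidin-captured and taken through RT-PCR. Fitness is the logarithm of genotype enrichment over wild-type enrichment, from inverse-variance-weighted replicate averages of Illumina-sequenced inputs and outputs. […] only genotypes with ≥10 input reads and ≥1 read per output were kept.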
On to C72U G77U C104A, for which the “polymerase ribozyme fitness (log ratio)” value is -2.21.
A16G G61C A84C G117A A119G: the “polymerase ribozyme fitness (log ratio)” value is -2.13.
In the case of A18C C115U it was -2.17.
In the case of A24G C124A it was 0.386; in that of G42U C72A A74G U96C, -3.45; in that of U87C A90G C94U, 0.339.
As for C56A G107C, the “polymerase ribozyme fitness (log ratio)” value was -5.28.
For C12G G47C C53U C56U G113A A118C the value was -5.05.
For C11U C34A the value was -2.54; for G25A C72G, -5.55.
In the case of U38A C49U G110U it was -4.28; in that of C15A C80U A84U, -2.49; in that of C72G U129A, -1.02.
Consider A16G C28U U54G A121G, for which the “polymerase ribozyme fitness (log ratio)” value was -0.979.
For C40U G107C U109A the value was -6.59; for A111C G117C, -4.16; for C11G C49U G120C, 1.52.
For the variant C53G U92A, the “polymerase ribozyme fitness (log ratio)” value was -3.48.
Turning to G71A U81C C115U, the “polymerase ribozyme fitness (log ratio)” value is -3.59.
For the variant G10U C72A, the “polymerase ribozyme fitness (log ratio)” value was -0.423.
For C40G C70G the value was -4.89.
For C13G A41C the value was -3.32.
For G69A U131A, the “polymerase ribozyme fitness (log ratio)” value is -2.38.
In the case of G36C U129A it was -2.27; in that of C31G C88A G110U C115A, -7.42; in that of C40U C86G, -1.6.
For A24G G48A A83G, the “polymerase ribozyme fitness (log ratio)” value was -2.89.
For C56U G135A the value was -0.436; for G63U C72U C115A, -1.23.
As for A24U C53G C72U C89A C124A, the “polymerase ribozyme fitness (log ratio)” value is -7.6.
On to G60C G117A, for which the “polymerase ribozyme fitness (log ratio)” value is -0.79.
As for C3U G48A A68G, the “polymerase ribozyme fitness (log ratio)” value is -3.84.
In the case of A6C A29U G52U C53U G63U G120A C123U it was -3.79; in that of A6U A37U G60U C82G C85G, -2.29; in that of G63A A90C, -2.84.
In the case of C53G G117C, the “polymerase ribozyme fitness (log ratio)” value was -3.47.
C4G G61C: the “polymerase ribozyme fitness (log ratio)” value was -2.88.
In the case of C62U G113C C124A U133A it was -2.07.
In the case of U7A C70U G77U U92C G117C it was -5.47.
For U21C C64A C99G U112G the value was -8.45.
As for C56A A111U U129C, the “polymerase ribozyme fitness (log ratio)” value was -4.47.
As to U21G C72A, the “polymerase ribozyme fitness (log ratio)” value was -0.561.
For A46U G57U U132A the value was -0.968; for G71A U106C, -1.36; for C86A G110U, -2.79.
For U14G C73A A90U the value was -3.66.
In the case of A6C A41U A43G G57U U130G it was -3.78; in that of A18U G60U U130C, -1.84.
Turning to U81G C89G A121G, the “polymerase ribozyme fitness (log ratio)” value is -4.14.
In the case of C20G G36A A121C it was -3.32; in that of U7A A50U G57A A83U, -1.44; in that of U78C A111C, 0.402.
In the case of U109G G113A it was -5.72.
For C124U G127A G135U the value was -0.796; for C11U A27U A103U G120C G122U, -5.67; for C56U G63A, -4.43.
Take A46G C79A: the “polymerase ribozyme fitness (log ratio)” value is -1.06.
Turning to U14G G44A C72U C104U, the “polymerase ribozyme fitness (log ratio)” value was -2.42.
U9A C22G G51A C56G C123A: the “polymerase ribozyme fitness (log ratio)” value was -3.28.
For C20U A43C C82U C98U the value was -4.43.
As to G52A G57U C72U, the “polymerase ribozyme fitness (log ratio)” value was -0.842.
Regarding C22G A26C G42C A84U, the “polymerase ribozyme fitness (log ratio)” value is -6.04.
For C98U G110U, the “polymerase ribozyme fitness (log ratio)” value is -2.66.
For A43G G93C G120A, the “polymerase ribozyme fitness (log ratio)” value is -2.35.
For C4G U7G U55A C99U U112G U132C the value was -4.94; for C12G G63U A66G U109A A119U G127U, -5.43.
C13G G36U A75G G77A C123U: the “polymerase ribozyme fitness (log ratio)” value was -0.649.
For U9A G42A C86U C104G G110U the value was -7.22; for C49U G63C C124U, 0.36; for C73A G93C, -0.962.
For C102U G128C U129A the value was -4.82; for A68G C114U, -5.48.
Regarding C20U G42C C88G U112A G117A, the “polymerase ribozyme fitness (log ratio)” value is -6.
In the case of G61U A91U, the “polymerase ribozyme fitness (log ratio)” value was -1.05.
Take A16U U21G C114U: the “polymerase ribozyme fitness (log ratio)” value was -4.99.
For C53U G63A the value was -1.18; for C4G A90G C104U, -0.701.
In the case of G39U U109G it was -5.73; in that of G61A U87G, 0.506.
In the case of G61A G113C G135A it was -2.34; in that of C28U C123G, -0.0468.
With C22A C31G A50C C70G A111C, the “polymerase ribozyme fitness (log ratio)” value is -7.1.
With G69C G110C, the “polymerase ribozyme fitness (log ratio)” value was -4.54.
For C22G C73G U133G the value was -4.48.
As for G19U A26U C64U U78C C114A, the “polymerase ribozyme fitness (log ratio)” value is -1.82.
For C12G G39U G61A U106C G127C the value was -2.63; for C11A G60U A83U, -2.13; for C4G U125G, 0.0157.
For C64U G120U C123G the value was 1.13; for G10A C56A, 0.127.
For G10A G61A, the “polymerase ribozyme fitness (log ratio)” value was determined as 0.248.
For U96G G110U G120U U132C the value was -4.08.
With U116A G120U, the “polymerase ribozyme fitness (log ratio)” value was -1.5.
For the variant G25A A43G C72U A111U, the “polymerase ribozyme fitness (log ratio)” value was -6.94.
As to A2U A5C C62A G93C, the “polymerase ribozyme fitness (log ratio)” value was -5.08.
In the case of G44A C88A it was -1.02; in that of A46C C72U U81A A105C, -4.47; in that of C40G G113A G122C, -1.81.
On to A16G U92C U129C, for which the “polymerase ribozyme fitness (log ratio)” value was -3.37.
In the case of C13G G61A, the “polymerase ribozyme fitness (log ratio)” value is -1.99.
In the case of U78A C79A A95C, the “polymerase ribozyme fitness (log ratio)” value was -4.32.
With U38G G52A G63C, the “polymerase ribozyme fitness (log ratio)” value is -2.23.
For G110C C124A the value was -3.32; for C62U U78A U96C, -0.0957.
On to C70A C98U U130G, for which the “polymerase ribozyme fitness (log ratio)” value was -2.6.
For G48U G57U C85A C114G U129A the value was -6.62; for C15U C115U, -1.42.
Take C12G C70U U106A: the “polymerase ribozyme fitness (log ratio)” value worked out at 0.277.
For the variant G44U C80U, the “polymerase ribozyme fitness (log ratio)” value is -1.59.
For C13U A18U G42C U87A C124U the value was 0.0751; for G23C G45C G51U G71C G120C, -6.31.
For A27C U87A A91G the value was -4.73; for G57U G71A C104A U106C U125A U131C, -3.71; for A26U G42C, -6.73.
Turning to C12U U116G, the “polymerase ribozyme fitness (log ratio)” value is -0.0621.
Regarding C13A C94G C101A, the “polymerase ribozyme fitness (log ratio)” value was -4.8.
G47U G63A U116A: the “polymerase ribozyme fitness (log ratio)” value was -4.47.
Consider U14G G128A, for which the “polymerase ribozyme fitness (log ratio)” value is -3.77.
As to C72G C98U A105C, the “polymerase ribozyme fitness (log ratio)” value was -4.92.
Consider U14A G36A, for which the “polymerase ribozyme fitness (log ratio)” value is -3.62.
For G47A G120C, the “polymerase ribozyme fitness (log ratio)” value turned out to be 0.156.
In the case of A6C U9G G57U G113U G128U it was -3.88.
Take U32A C34G: the “polymerase ribozyme fitness (log ratio)” value is -6.88.
In the case of C85G U133G it was -2.39; in that of A91U G120A, -0.951.
In the case of G60C G63A it was -5.52; in that of G17U C70U U78G, -3.17; in that of C15U A83C A91G A111G, -2.96.
In the case of C62U G77A U87A A111U G122U it was -5.7; in that of C40A A43C, -3.2; in that of A74U C88U U116A, -3.69.
In the case of A29U G48A A111C, the “polymerase ribozyme fitness (log ratio)” value is -2.11.
Consider C11G C34U C49A G61A C123U, for which the “polymerase ribozyme fitness (log ratio)” value is -2.15.
In the case of C34A G52U C53U A90U U106A it was -4.54; in that of C8G A18C G39C U133G, -2.2; in that of G63C C89U C102U A111C C115U, -6.78.
For A2U G51C G69A A121G U132C the value was -6.81; for A5G C8U U54A A111U, -2.21; for G61A A95U A119U G120C C123A, 1.22.
For G48U C56G C72A C94A G110C the value was -5.78; for G10U C31G G39C C64U G110A G113U, -6.42.
For the variant C22U G63C G120U, the “polymerase ribozyme fitness (log ratio)” value is -4.89.
For G77A C89A, the “polymerase ribozyme fitness (log ratio)” value was -1.73.
For C11G C76U G120A the value was 2.23; for A27U G52A C88U U96A, -4.5; for G45U C56G C73A U116C, -4.92.
For A16C C53U C86G, the “polymerase ribozyme fitness (log ratio)” value is -2.99.
In the case of U32C G44A G61U U131G it was -0.948; in that of G58C C85U C123G U132A, 1.38; in that of C4G C12A C15A C94A C99U G110C, -6.59.
Consider C34A U55A C88A, for which the “polymerase ribozyme fitness (log ratio)” value was -3.93.
A26U G39A C49G G61A C88U C124G: the “polymerase ribozyme fitness (log ratio)” value is -3.77.
In the case of U7G A16C it was -1.37; in that of A27U G61A, -2.77.
On to G39A C72U C99U G120A U126C, for which the “polymerase ribozyme fitness (log ratio)” value is -3.09.
Consider C94A G128A, for which the “polymerase ribozyme fitness (log ratio)” value is -2.41.
As to U59A G93C C114U, the “polymerase ribozyme fitness (log ratio)” value was -2.6.
In the case of U7C C8G C62U G93U A95C it was -0.906.
For U14A G48U the value was -2.9; for C12G C76U, -0.0382; for U55A C101U A121U, 1.89.
For G23A G77C G120C, the “polymerase ribozyme fitness (log ratio)” value was -6.71.
For G48U U59C C86G the value was -2.19; for C34A C89U, -4.08; for C12A G71U G117C U126C, -6.35.
Consider C82U A100C C123U, for which the “polymerase ribozyme fitness (log ratio)” value was -0.0044.
For G47A U87C U112A the value was 0.24.

Values taken from the RNAGym collection of RNA variant scans (doi:10.1073/pnas.2313332121).
